Among the data in article PMC10415120 are response (PLA dots per cell) values, retold here.

For this experiment, the target named is MDC1 (endogenous, HCT116) [human (endogenous in HCT116)]. The experiment can be described thus: proximity ligation assay (PLA) in cells. The settings on record: ESCO2 KD HCT116 cells, bleomycin treated; 30 cells counted per group; mean ± SEM; parent: 14; read off a plot.

Regarding “Flag-ESCO2 WT (in ESCO2 KD HCT116 cells) mutant S196A; T233A [human] / MDC1 (endogenous, HCT116) [human (endogenous in HCT116)] chain 1 S196A, chain 1 T233A”, the response (PLA dots per cell) turned out to be 0.5.
